{"source": "paper PMC3665681", "target": "A3B3 of Thermus thermophilus VoV1 (His-tagged A3B3, expressed without a rotor subunit) (T. thermophilus) (UniProt Q56403)", "sequence (Q56403 whole entry C28S/S232A/T235S/C255A, chain 1 of 2)": "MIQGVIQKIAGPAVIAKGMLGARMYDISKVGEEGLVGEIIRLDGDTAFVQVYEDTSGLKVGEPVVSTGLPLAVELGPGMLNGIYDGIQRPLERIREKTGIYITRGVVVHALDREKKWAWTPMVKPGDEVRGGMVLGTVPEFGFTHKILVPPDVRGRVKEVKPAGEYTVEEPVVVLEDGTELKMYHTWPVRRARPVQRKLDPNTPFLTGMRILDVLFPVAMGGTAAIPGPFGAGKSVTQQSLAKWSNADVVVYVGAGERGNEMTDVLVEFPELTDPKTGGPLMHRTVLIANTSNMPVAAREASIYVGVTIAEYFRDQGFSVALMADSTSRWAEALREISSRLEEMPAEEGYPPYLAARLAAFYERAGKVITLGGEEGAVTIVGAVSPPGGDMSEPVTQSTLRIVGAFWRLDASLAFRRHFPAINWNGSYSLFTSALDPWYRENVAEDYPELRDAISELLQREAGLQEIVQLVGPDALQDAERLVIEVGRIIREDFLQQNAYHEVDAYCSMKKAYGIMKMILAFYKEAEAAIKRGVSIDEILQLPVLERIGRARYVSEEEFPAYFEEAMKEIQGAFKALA", "sequence (Q56404 whole entry C264S, chain 2 of 2, further chain)": "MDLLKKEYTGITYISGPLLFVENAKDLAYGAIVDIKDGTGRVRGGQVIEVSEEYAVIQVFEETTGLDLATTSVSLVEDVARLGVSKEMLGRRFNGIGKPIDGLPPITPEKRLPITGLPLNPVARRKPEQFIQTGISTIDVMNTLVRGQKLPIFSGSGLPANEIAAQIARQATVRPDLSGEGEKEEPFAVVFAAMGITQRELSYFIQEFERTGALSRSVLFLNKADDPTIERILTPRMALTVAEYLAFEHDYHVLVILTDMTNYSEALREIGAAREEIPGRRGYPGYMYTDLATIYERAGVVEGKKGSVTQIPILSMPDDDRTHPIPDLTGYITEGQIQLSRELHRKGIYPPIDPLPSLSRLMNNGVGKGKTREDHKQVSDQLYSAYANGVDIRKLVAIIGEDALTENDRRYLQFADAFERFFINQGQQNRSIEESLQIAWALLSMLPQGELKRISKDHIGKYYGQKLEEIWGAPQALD"}
{"substance": "FliJ of Salmonella enterica serovar Typhimurium (from UniProt P0A1K1 1-147) (natural protein)", "values": [{"measurement": "ATPase turnover rate of A3B3J (A3B3 alone ∼4.0 s^−1); 25°C, 4 mM MgATP", "value": 7, "unit": "s⁻¹"}]}
